In PMC5923229 (2018) one finds Kd data, which are given here for one protein.

The data set deals with the molecule itself.

B1: H46R/H48Q SOD1 with ebsulphur conjugated at Cys111 (enzyme)
chain: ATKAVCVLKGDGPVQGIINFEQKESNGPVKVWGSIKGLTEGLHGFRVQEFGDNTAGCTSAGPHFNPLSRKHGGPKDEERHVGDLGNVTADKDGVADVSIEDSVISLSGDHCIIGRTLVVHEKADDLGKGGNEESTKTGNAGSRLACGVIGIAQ
modifications: ebsulphur conjugated at Cys111
For the protein B1, binding was characterised by a dissociation constant (Kd) of 676 nM.

Broadly, the Kd is the concentration at which binding is half-saturated.
